Source: publication PMC11032371

What was measured:
K63-diUb = K63-diUb (UniProt P0CG48); test: ITC; 293 K; 50 mM HEPES pH 7.4, 50 mM NaCl, 0.5 mM TCEP; cell 50–100 μM, syringe usually 10-fold; 20 injections of 2 μl; averages of at least two experiments; which partner was in the syringe not stated
K48-diUb = K48-diUb (UniProt P0CG48); test: as above

Substance “N4BP1 (850–893) (from UniProt Q6A037 850-893) (domain or fragment)” has a Kd (K63-diUb) of 16.7 µM, a dH (K63-diUb) of -5.88 kcal/mol and a stoichiometry N (K63-diUb) of 1.71. For the same substance, the Kd (K48-diUb) was 47 µM, the dH (K48-diUb) was -5.87 kcal/mol and the stoichiometry N (K48-diUb) was 1.29.
